Assay results as given in article doi:10.1101/2025.08.05.667158.

Columns and labels:
[1] = biological target: human IR-A ECD construct (residues 1-917) (human); assay: cryo-EM structure
[2] = biological target: IR-A in cell membranes of human IM-9 lymphocytes (human (endogenous in IM-9)) (UniProt P06213); assay: radioligand binding

In the case of S661 peptide, the stoichiometry N (per IR-ECD dimer) [1] is reported as 2 and the Kd [2] is reported as 2.6 nM.
